Measured values reported in the supplement of paper PMC9112550, “Optimization of the antimicrobial peptide Bac7 by deep mutational scanning” (BMC Biology, 2022).

These sequences were tested on Escherichia coli TOP10 (assay: shrunken log2 fold change of peptide-encoding DNA abundance (4.5 h post-induction vs induction); higher = less antimicrobial activity (less host growth inhibition)). Details: time post-induction: 4.5 h; library: site-saturation at positions 5, 18, 19, 20.
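Further: peptides expressed intracellularly from a pBAD plasmid library in pooled LB shake-flask culture, induced with 0.3% L-arabinose, DNA abundance read by NGS, three biological replicates, DESeq2 with apeglm shrinkage.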

| Sequence | shrunken log2 fold change |
| --- | --- |
| RRIRHRPPRLPRPRPRPRGGPRP | 0.504 |
| RRIRFRPPRLPRPRPRPVALPRP | -0.128 |
| RRIRYRPPRLPRPRPRPILRPRP | -0.172 |
| RRIRRRPPRLPRPRPRPKIVPRP | 0.0944 |
| RRIRSRPPRLPRPRPRPTILPRP | -0.413 |
| RRIRFRPPRLPRPRPRPGPPPRP | 0.909 |
| RRIRMRPPRLPRPRPRPQQFPRP | 0.359 |
| RRIRDRPPRLPRPRPRPPSGPRP | 0.364 |
| RRIRFRPPRLPRPRPRPQIPPRP | -0.475 |
| RRIRERPPRLPRPRPRPIHCPRP | -0.118 |
| RRIRGRPPRLPRPRPRPALPPRP | 0.696 |
| RRIRYRPPRLPRPRPRPKEKPRP | -0.0829 |
| RRIRHRPPRLPRPRPRPLPRPRP | 0.176 |
| RRIRNRPPRLPRPRPRPLKKPRP | -0.0418 |
| RRIRNRPPRLPRPRPRPWWPPRP | -0.218 |
| RRIRVRPPRLPRPRPRPGCKPRP | 0.32 |
| RRIRWRPPRLPRPRPRPFPPPRP | -0.0255 |
| RRIRLRPPRLPRPRPRPIWWPRP | 0.94 |
| RRIRGRPPRLPRPRPRPKNHPRP | 0.179 |
| RRIRSRPPRLPRPRPRPPHPPRP | 0.325 |
| RRIRTRPPRLPRPRPRPAQKPRP | -0.00259 |
| RRIRYRPPRLPRPRPRPFQIPRP | -0.0359 |
| RRIRRRPPRLPRPRPRPQHDPRP | 0.478 |
| RRIRRRPPRLPRPRPRPDTMPRP | 0.0801 |
| RRIRDRPPRLPRPRPRPGKPPRP | 0.0599 |

| Sequence | shrunken log2 fold change |
| --- | --- |
| RRIRWRPPRLPRPRPRPNVDPRP | -0.0535 |
| RRIRSRPPRLPRPRPRPRHCPRP | 0.101 |
| RRIRIRPPRLPRPRPRPKYHPRP | -0.532 |
| RRIRHRPPRLPRPRPRPMPQPRP | 0.235 |
| RRIRVRPPRLPRPRPRPHEPPRP | -0.0412 |
| RRIRRRPPRLPRPRPRPNSGPRP | 0.279 |
| RRIRGRPPRLPRPRPRPARPPRP | 0.63 |
| RRIRNRPPRLPRPRPRPIMGPRP | -0.0169 |
| RRIRQRPPRLPRPRPRPPDSPRP | 0.377 |
| RRIRFRPPRLPRPRPRPPCLPRP | -0.0576 |
| RRIRCRPPRLPRPRPRPSIMPRP | -0.684 |
| RRIRDRPPRLPRPRPRPAQLPRP | -0.0667 |
| RRIRARPPRLPRPRPRPVCAPRP | 0.571 |
| RRIRCRPPRLPRPRPRPLWEPRP | 0.00378 |
| RRIRERPPRLPRPRPRPTLTPRP | -0.0194 |
| RRIRLRPPRLPRPRPRPFGQPRP | -0.11 |
| RRIRDRPPRLPRPRPRPDSTPRP | -0.00421 |
| RRIRPRPPRLPRPRPRPVTVPRP | -0.163 |
| RRIRGRPPRLPRPRPRPNTSPRP | 0.172 |
| RRIRFRPPRLPRPRPRPFGAPRP | 0.168 |
| RRIRPRPPRLPRPRPRPVFYPRP | -0.316 |
| RRIRSRPPRLPRPRPRPRGIPRP | -0.33 |
| RRIRWRPPRLPRPRPRPNCNPRP | -0.101 |
| RRIRMRPPRLPRPRPRPAQTPRP | 0.00383 |
| RRIRRRPPRLPRPRPRPGFAPRP | 0.315 |

| Sequence | shrunken log2 fold change |
| --- | --- |
| RRIRCRPPRLPRPRPRPMHFPRP | 0.102 |
| RRIRNRPPRLPRPRPRPFPNPRP | -0.33 |
| RRIRARPPRLPRPRPRPLNRPRP | 0.0549 |
| RRIRQRPPRLPRPRPRPRGQPRP | 0.726 |
| RRIRYRPPRLPRPRPRPNFVPRP | -0.0161 |
| RRIRRRPPRLPRPRPRPIVMPRP | -0.0167 |
| RRIRDRPPRLPRPRPRPLIIPRP | -0.0486 |
| RRIRNRPPRLPRPRPRPQEGPRP | 0.0303 |
| RRIRYRPPRLPRPRPRPTGVPRP | -0.0415 |
| RRIRHRPPRLPRPRPRPAQLPRP | -0.3 |
| RRIRARPPRLPRPRPRPTVQPRP | 0.549 |
| RRIRHRPPRLPRPRPRPRHCPRP | 0.03 |
| RRIRFRPPRLPRPRPRPDWDPRP | 0.124 |
| RRIRFRPPRLPRPRPRPPEQPRP | -0.0209 |
| RRIRSRPPRLPRPRPRPYQKPRP | -0.122 |
| RRIRKRPPRLPRPRPRPKRGPRP | 0.781 |
| RRIRERPPRLPRPRPRPDYKPRP | -0.31 |
| RRIRVRPPRLPRPRPRPHWGPRP | -0.0382 |
| RRIRGRPPRLPRPRPRPDGRPRP | 0.169 |
| RRIRHRPPRLPRPRPRPRTHPRP | -0.137 |
| RRIRARPPRLPRPRPRPTDYPRP | -0.0499 |
| RRIRMRPPRLPRPRPRPRSWPRP | 1.42 |
| RRIRQRPPRLPRPRPRPFCTPRP | -0.246 |
| RRIRRRPPRLPRPRPRPFECPRP | 0.036 |
| RRIRCRPPRLPRPRPRPIKPPRP | -0.259 |

| Sequence | shrunken log2 fold change |
| --- | --- |
| RRIRPRPPRLPRPRPRPWLDPRP | 0.164 |
| RRIRTRPPRLPRPRPRPCPTPRP | 0.0552 |
| RRIRHRPPRLPRPRPRPTFHPRP | -0.326 |
| RRIRTRPPRLPRPRPRPYSDPRP | -0.148 |
| RRIRSRPPRLPRPRPRPTFPPRP | 0.0566 |
| RRIRVRPPRLPRPRPRPNFYPRP | -0.146 |
| RRIRKRPPRLPRPRPRPAFCPRP | 0.422 |
| RRIRTRPPRLPRPRPRPPRKPRP | 0.25 |
| RRIRQRPPRLPRPRPRPDQPPRP | -0.0438 |
| RRIRPRPPRLPRPRPRPTVGPRP | 0.555 |
| RRIRHRPPRLPRPRPRPPLLPRP | 0.152 |
| RRIRRRPPRLPRPRPRPPVPPRP | 0.753 |
| RRIRERPPRLPRPRPRPSQRPRP | -0.0321 |
| RRIRYRPPRLPRPRPRPVDRPRP | -0.126 |
| RRIRKRPPRLPRPRPRPTESPRP | 0.00281 |
| RRIRIRPPRLPRPRPRPCRKPRP | -0.0747 |
| RRIRSRPPRLPRPRPRPWLWPRP | 1.45 |
| RRIRFRPPRLPRPRPRPNRQPRP | -0.564 |
| RRIRNRPPRLPRPRPRPRLHPRP | 0.0921 |
| RRIRCRPPRLPRPRPRPSGDPRP | -0.195 |
| RRIRQRPPRLPRPRPRPQWSPRP | 0.282 |
| RRIRTRPPRLPRPRPRPNSHPRP | -0.015 |
| RRIRQRPPRLPRPRPRPYVWPRP | -0.00378 |
| RRIRCRPPRLPRPRPRPGNNPRP | -0.47 |
| RRIRLRPPRLPRPRPRPDHSPRP | -0.0489 |

| Sequence | shrunken log2 fold change |
| --- | --- |
| RRIRKRPPRLPRPRPRPQCPPRP | -0.000549 |
| RRIRHRPPRLPRPRPRPTTKPRP | 0.00227 |
| RRIRPRPPRLPRPRPRPFMSPRP | -0.384 |
| RRIRARPPRLPRPRPRPNSWPRP | 0.422 |
| RRIRPRPPRLPRPRPRPDQFPRP | -0.0233 |
| RRIRARPPRLPRPRPRPGFFPRP | 0.509 |
| RRIRFRPPRLPRPRPRPFDHPRP | -0.281 |
| RRIRERPPRLPRPRPRPESWPRP | 0.343 |
| RRIRCRPPRLPRPRPRPAWRPRP | 0.575 |
| RRIRERPPRLPRPRPRPEYRPRP | -0.00146 |
| RRIRLRPPRLPRPRPRPYRTPRP | -0.197 |
| RRIRKRPPRLPRPRPRPFVAPRP | 0.115 |
| RRIRRRPPRLPRPRPRPPNGPRP | 0.407 |
| RRIRPRPPRLPRPRPRPLENPRP | -0.00388 |
| RRIRLRPPRLPRPRPRPWANPRP | 0.0875 |
| RRIRCRPPRLPRPRPRPQPYPRP | -0.975 |
| RRIRERPPRLPRPRPRPMCYPRP | -0.403 |
| RRIRWRPPRLPRPRPRPSARPRP | 0.54 |
| RRIRDRPPRLPRPRPRPQLGPRP | 0.0197 |
| RRIRRRPPRLPRPRPRPEWGPRP | 0.0686 |
| RRIRARPPRLPRPRPRPPVQPRP | 0.227 |
| RRIRCRPPRLPRPRPRPILVPRP | -0.0457 |
| RRIRSRPPRLPRPRPRPCIKPRP | -0.0801 |
| RRIRARPPRLPRPRPRPCLCPRP | -0.495 |
| RRIRSRPPRLPRPRPRPEFFPRP | -0.0464 |

| Sequence | shrunken log2 fold change |
| --- | --- |
| RRIRERPPRLPRPRPRPHENPRP | -0.365 |
| RRIRCRPPRLPRPRPRPMARPRP | 0.352 |
| RRIRNRPPRLPRPRPRPSGQPRP | -0.188 |
| RRIRCRPPRLPRPRPRPHIAPRP | -0.413 |
| RRIRGRPPRLPRPRPRPHGAPRP | -0.00969 |
| RRIRHRPPRLPRPRPRPAWSPRP | -0.0185 |
| RRIRERPPRLPRPRPRPLVIPRP | -0.169 |
| RRIRQRPPRLPRPRPRPSQHPRP | -0.356 |
| RRIRDRPPRLPRPRPRPTMPPRP | -0.121 |
| RRIRGRPPRLPRPRPRPKSWPRP | 0.925 |
| RRIRIRPPRLPRPRPRPGPYPRP | -0.376 |
| RRIRIRPPRLPRPRPRPVCVPRP | -0.279 |
| RRIRGRPPRLPRPRPRPQNMPRP | -0.399 |
| RRIRFRPPRLPRPRPRPHTYPRP | -0.554 |
| RRIRCRPPRLPRPRPRPELYPRP | 0.221 |
| RRIRMRPPRLPRPRPRPPIVPRP | -0.112 |
| RRIRGRPPRLPRPRPRPAVEPRP | 1.21 |
| RRIRTRPPRLPRPRPRPHNLPRP | -0.274 |
| RRIRFRPPRLPRPRPRPLFIPRP | -0.652 |
| RRIRPRPPRLPRPRPRPRRVPRP | 0.098 |
| RRIRIRPPRLPRPRPRPNLEPRP | -0.114 |
| RRIRCRPPRLPRPRPRPGRIPRP | -0.231 |
| RRIRVRPPRLPRPRPRPHYYPRP | 0.0781 |
| RRIRLRPPRLPRPRPRPIMMPRP | -0.0614 |
| RRIRRRPPRLPRPRPRPFILPRP | -0.293 |
